{"source": "IntAct's records for PubMed 20223215", "parents": {"B1": {"name": "Low-density lipoprotein receptor-related protein 8 (Homo sapiens), Q14114 (parent)", "chain": "MGLPEPGPLRLLALLLLLLLLLLLQLQHLAAAAADPLLGGQGPAKDCEKDQFQCRNERCIPSVWRCDEDDDCLDHSDEDDCPKKTCADSDFTCDNGHCIHERWKCDGEEECPDGSDESEATCTKQVCPAEKLSCGPTSHKCVPASWRCDGEKDCEGGADEAGCATLCAPHEFQCGNRSCLAAVFVCDGDDDCGDGSDERGCADPACGPREFRCGGDGGGACIPERWVCDRQFDCEDRSDEAAELCGRPGPGATSAPAACATASQFACRSGECVHLGWRCDGDRDCKDKSDEADCPLGTCRGDEFQCGDGTCVLAIKHCNQEQDCPDGSDEAGCLQGLNECLHNNGGCSHICTDLKIGFECTCPAGFQLLDQKTCGDIDECKDPDACSQICVNYKGYFKCECYPGYEMDLLTKNCKAAAGKSPSLIFTNRHEVRRIDLVKRNYSRLIPMLKNVVALDVEVATNRIYWCDLSYRKIYSAYMDKASDPKEQEVLIDEQLHSPEGLAVDWVHKHIYWTDSGNKTISVATVDGGRRRTLFSRNLSEPRAIAVDPLRGFMYWSDWGDQAKIEKSGLNGVDRQTLVSDNIEWPNGITLDLLSQRLYWVDSKLHQLSSIDFSGGNRKTLISSTDFLSHPFGIAVFEDKVFWTDLENEAIFSANRLNGLEISILAENLNNPHDIVIFHELKQPRAPDACELSVQPNGGCEYLCLPAPQISSHSPKYTCACPDTMWLGPDMKRCYRAPQSTSTTTLASTMTRTVPATTRAPGTTVHRSTYQNHSTETPSLTAAVPSSVSVPRAPSISPSTLSPATSNHSQHYANEDSKMGSTVTAAVIGIIVPIVVIALLCMSGYLIWRNWKRKNTKSMNFDNPVYRKTTEEEDEDELHIGRTAQIGHVYPAAISSFDRPLWAEPCLGETREPEDPAPALKELFVLPGEPRSQLHQLPKNPLSELPVVKSKRVALSLEDDGLP"}}}
{"variants_of": "B1", "conditions": "with reln_mouse Reln"}
{"variant": "D50A", "effect of a mutation on the interaction": "decreasing interaction"}
{"variant": "P61A", "effect of a mutation on the interaction": "disrupting interaction"}
{"variant": "V63A", "effect of a mutation on the interaction": "decreasing interaction"}
{"variant": "W64H", "effect of a mutation on the interaction": "disrupting interaction"}
{"variant": "D69N", "effect of a mutation on the interaction": "disrupting interaction"}
